According to publication PMC9859756, “OASL phase condensation induces amyloid-like fibrillation of RIPK3 to promote virus-induced necroptosis” (Nature Cell Biology, 2023):

T1: eGFP C-terminal fused full-length human OASL (human, UniProt Q15646 1-514)
T1 construct: also called OASL–GFP; GFP-tagged full-length OASL; source: E. coli BL21 DE3 (pLys), purified (glutathione sepharose 4B, GST removed with PreScission protease); not shown: eGFP, C-terminal, kept
T1 sequence (looked up): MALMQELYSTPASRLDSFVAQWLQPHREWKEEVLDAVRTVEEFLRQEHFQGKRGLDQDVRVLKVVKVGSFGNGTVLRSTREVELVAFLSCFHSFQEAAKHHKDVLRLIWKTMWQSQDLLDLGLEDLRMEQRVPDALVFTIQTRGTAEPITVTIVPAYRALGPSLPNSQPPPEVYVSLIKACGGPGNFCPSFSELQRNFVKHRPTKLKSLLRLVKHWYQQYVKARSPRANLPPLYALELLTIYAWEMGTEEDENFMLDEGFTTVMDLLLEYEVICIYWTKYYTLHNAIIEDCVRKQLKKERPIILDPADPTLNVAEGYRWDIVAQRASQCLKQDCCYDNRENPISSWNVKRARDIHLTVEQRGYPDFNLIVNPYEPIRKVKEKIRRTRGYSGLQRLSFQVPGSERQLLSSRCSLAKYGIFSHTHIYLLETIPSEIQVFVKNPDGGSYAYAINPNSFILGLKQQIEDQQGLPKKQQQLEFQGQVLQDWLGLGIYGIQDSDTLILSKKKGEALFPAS


How the values were obtained:
[1] = target: T1, eGFP C-terminal fused full-length human …; test: in vitro recruitment into phase-separated droplets (fluorescence microscopy); details: both partners purified
[2] = target: T2, mCherry C-terminal fused full-length human RIPK3 (human, UniProt Q9Y572 1-518); test: as above; details: both partners purified
T2 construct: also called RIPK3–mCherry; mCherry-tagged full-length RIPK3; source: E. coli BL21 DE3 (pLys), purified (glutathione sepharose 4B, GST removed with PreScission protease); not shown: mCherry, C-terminal, kept

| binding result [1] | binding result [2] | Binder |
| --- | --- | --- |
| binds |  | mCherry C-terminal fused C-terminal unstructured region of human RIPK3 (RIPK3 295–518) (domain or fragment, UniProt Q9Y572 295-518, looked up, also called RIPK3_(295–518)–mCherry; C-terminal RIPK3_(295–518); source: E. coli BL21 DE3 (pLys), purified (glutathione sepharose 4B, GST removed with PreScission protease); not shown: mCherry, C-terminal, kept) NAAVSTVKDFLSQLRSSNRRFSIPESGQGGTEMDGFRRTIENQHSRNDVMVSEWLNKLNLEEPPSSVPKKCPSLTKRSRAQEEQVPQAWTAGTSSDSMAQPPQTPETSTFRNQMPSPTSTGTPSPGPRGNQGAERQGMNWSCRTPEPNPVTGRPLVNIYNCSGVQVGDNNYLTMQQTTALPTWGLAPSGKGRGLQHPPPVGSQEGPKDPEAWSRPQGWYNHSGK |
|  | binds | purified untagged full-length OASL (natural protein, human, UniProt Q15646 1-514, looked up, also called purified human OASL protein; source: purified) MALMQELYSTPASRLDSFVAQWLQPHREWKEEVLDAVRTVEEFLRQEHFQGKRGLDQDVRVLKVVKVGSFGNGTVLRSTREVELVAFLSCFHSFQEAAKHHKDVLRLIWKTMWQSQDLLDLGLEDLRMEQRVPDALVFTIQTRGTAEPITVTIVPAYRALGPSLPNSQPPPEVYVSLIKACGGPGNFCPSFSELQRNFVKHRPTKLKSLLRLVKHWYQQYVKARSPRANLPPLYALELLTIYAWEMGTEEDENFMLDEGFTTVMDLLLEYEVICIYWTKYYTLHNAIIEDCVRKQLKKERPIILDPADPTLNVAEGYRWDIVAQRASQCLKQDCCYDNRENPISSWNVKRARDIHLTVEQRGYPDFNLIVNPYEPIRKVKEKIRRTRGYSGLQRLSFQVPGSERQLLSSRCSLAKYGIFSHTHIYLLETIPSEIQVFVKNPDGGSYAYAINPNSFILGLKQQIEDQQGLPKKQQQLEFQGQVLQDWLGLGIYGIQDSDTLILSKKKGEALFPAS |
| binds |  | BFP C-terminal fused full-length human ZBP1 (natural protein, UniProt Q9H171 1-429, looked up, also called ZBP1–BFP; not shown: BFP, C-terminal, kept) MAQAPADPGREGHLEQRILQVLTEAGSPVKLAQLVKECQAPKRELNQVLYRMKKELKVSLTSPATWCLGGTDPEGEGPAELALSSPAERPQQHAATIPETPGPQFSQQREEDIYRFLKDNGPQRALVIAQALGMRTAKDVNRDLYRMKSRHLLDMDEQSKAWTIYRPEDSGRRAKSASIIYQHNPINMICQNGPNSWISIANSEAIQIGHGNIITRQTVSREDGSAGPRHLPSMAPGDSSTWGTLVDPWGPQDIHMEQSILRRVQLGHSNEMRLHGVPSEGPAHIPPGSPPVSATAAGPEASFEARIPSPGTHPEGEAAQRIHMKSCFLEDATIGNSNKMSISPGVAGPGGVAGSGEGEPGEDAGRRPADTQSRSHFPRDIGQPITPSHSKLTPKLETMTLGNRSHKAAEGSHYVDEASHEGSWWGGGI |
